This data set concerns the molecule itself. Kind of data set: SEC-MALS. On the technique in general: In gel filtration, larger molecules generally elute earlier.

B1: VACV protein N1 with C-terminal His6 tag (natural protein)
chain: MRTLLIRYILWRNDNDQTYYNDNFKKLMLLDELVDDGDVCTLIKNMRMTLSDGPLLDRLNQPVNNIEDAKRMIAISAKVARDIGERSEIRWEESFTILFRMIETYFDDLMIDLYGEK
On to B1, for which the “stoichiometry N” value is 2.

For orientation: stoichiometry N means a count of units in the complex or per binding partner.

The record behind these values is PMC4358236 (The Journal of Biological Chemistry, 2015).
